± gives the standard deviation of the averaged measurements.
B1: library; a variant is named by its letters at N, in order (parent)
chain: GCUGUCACCGAGAAACUGUGAAGUAUAUCUUAAACCUGGGCACUUAAAAGAUAUAUGGAGUUAGUAGUGCAACCUGCUCGGUCUGAUGAGUCCNNNNNNGGACGAAACAGC

Legend:
cyclic di-GMP [1] = variants of: B1; assay: FACS-Seq fitted mean relative fluorescence mCherry/BFP without ligand (log10 relative fluorescence); HEK293T; ligand: cyclic di-GMP (c-di-GMP-II aptamer); higher = higher reporter protein expression; conditions: ligand present: no
Description: (§1)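 Hammerhead (sTRSV) ribozyme switch libraries with a ligand aptamer grafted on stem I and a randomized N4-6 loop II, cloned into the 3' UTR of mCherry and transiently transfected into HEK293T cells; RNA-Seq 72 h post transfection with ligand added 1 h before transfection; RNA read count / plasmid DNA read count normalized to the non-cleaving sTRSVctl (x100), log10; sequences with >100 DNA reads. FACS-Seq: lentiviral library sorted into 6 bins after 48 h ligand, log-normal fit mean of mCherry/BFP scaled to controls. Printed sequences are partial switch sequences.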

cyclic di-GMP [2] = variants of: B1; assay: normalized RNA/DNA level without ligand (relative to sTRSVctl = 100) (log10 (% of sTRSVctl)); HEK293T; ligand: cyclic di-GMP (c-di-GMP-II aptamer); higher = less ribozyme self-cleavage, higher mRNA level; conditions: reporter: mCherry (pCS4076), ligand present: no
Description: as §1

cyclic di-GMP [3] = variants of: B1; assay: FACS-Seq fitted mean relative fluorescence mCherry/BFP with ligand (log10 relative fluorescence); HEK293T; ligand: cyclic di-GMP (c-di-GMP-II aptamer); ligand concentration (+) FACS-Seq: 1 mM; higher = higher reporter protein expression; conditions: ligand present: yes
Description: as §1

cyclic di-GMP [4] = variants of: B1; assay: normalized RNA/DNA level with ligand (relative to sTRSVctl = 100) (log10 (% of sTRSVctl)); HEK293T; ligand: cyclic di-GMP (c-di-GMP-II aptamer); ligand concentration (+) RNA-Seq: 1 mM; higher = less ribozyme self-cleavage, higher mRNA level; conditions: reporter: mCherry (pCS4076), ligand present: yes
Description: as §1

Variant | FACS-Seq fitted mean (log10) (cyclic di-GMP [1]) | normalized RNA/DNA level without ligand (log10) (cyclic di-GMP [2]) | FACS-Seq fitted mean (log10) (cyclic di-GMP [3]) | normalized RNA/DNA level with ligand (log10) (cyclic di-GMP [4])
CACACA | -0.628 ± 0.032 | 1.45 ± 0.11 | -0.354 ± 0.056 | 1.64 ± 0.089
CACACU | -0.437 ± 0.0083 | 1.52 ± 0.12 | -0.0902 ± 0.05 | 1.7 ± 0.067
AAAGUC | 0.135 ± 0.29 | 1.574 ± 0.0057 | 0.392 ± 0.048 | 1.75 ± 0.1
AAAGUU | -0.298 ± 0.1 | 1.59 ± 0.068 | 0.0631 ± 0.068 | 1.77 ± 0.03
UACGGA | -1.08 ± 0.21 | 1.61 ± 0.053 | -0.994 ± 0.18 | 1.76 ± 0.1
AAAGAU | 0.0924 ± 0.13 | 1.52 ± 0.037 | 0.367 ± 0.016 | 1.71 ± 0.17
AAAGAC | -0.0292 ± 0.22 | 1.56 ± 0.036 | 0.33 ± 0.099 | 1.75 ± 0.09
GACAAC | -0.156 ± 0.0096 | 1.63 ± 0.022 | 0.197 ± 0.1 | 1.82 ± 0.12
GACAAG | -0.339 ± 0.07 | 1.55 ± 0.029 | -0.0999 ± 0.034 | 1.72 ± 0.084
UACAGA | -0.198 ± 0.37 | 1.61 ± 0.052 | -0.101 ± 0.13 | 1.75 ± 0.14
GACGAA | -0.377 ± 0.016 | 1.43 ± 0.12 | -0.01 ± 0.049 | 1.65 ± 0.085
GACGAU | -0.37 ± 0.031 | 1.59 ± 0.021 | -0.0677 ± 0.044 | 1.74 ± 0.14
AAAUAU | -0.442 ± 0.052 | 1.6004 ± 0.00073 | -0.152 ± 0.097 | 1.78 ± 0.11
AAAUAA | -0.515 ± 0.032 | 1.45 ± 0.067 | -0.21 ± 0.07 | 1.68 ± 0.12
CACGAA | -0.353 ± 0.036 | 1.33 ± 0.14 | -0.00961 ± 0.027 | 1.53 ± 0.094
UAAAUA | -0.362 ± 0.037 | 1.654 ± 0.0031 | -0.139 ± 0.088 | 1.78 ± 0.059
UAAAUG | 0.102 ± 0.084 | 1.62 ± 0.0043 | 0.384 ± 0.037 | 1.83 ± 0.12
UAAAUU | 0.0621 ± 0.17 | 1.631 ± 0.016 | 0.394 ± 0.011 | 1.77 ± 0.11
GAACAG | -0.182 ± 0.12 | 1.753 ± 0.015 | 0.0981 ± 0.039 | 1.82 ± 0.094
GAAGUU | -0.118 ± 0.022 | 1.55 ± 0.072 | 0.245 ± 0.074 | 1.7 ± 0.091
UAAUAG | -0.126 ± 0.087 | 1.667 ± 0.0048 | -0.0799 ± 0.024 | 1.83 ± 0.099
CACUAA | -0.523 ± 0.058 | 1.3 ± 0.16 | -0.243 ± 0.011 | 1.48 ± 0.13
AACACU | 0.049 ± 0.17 | 1.68 ± 0.033 | 0.373 ± 0.032 | 1.81 ± 0.096
AACACA | -0.289 ± 0.0062 | 1.54 ± 0.031 | -0.0564 ± 0.0031 | 1.75 ± 0.12

Variant | FACS-Seq fitted mean (log10) (cyclic di-GMP [1]) | normalized RNA/DNA level without ligand (log10) (cyclic di-GMP [2]) | FACS-Seq fitted mean (log10) (cyclic di-GMP [3]) | normalized RNA/DNA level with ligand (log10) (cyclic di-GMP [4])
UAACUU | -0.637 ± 0.031 | 1.65 ± 0.005 | -0.458 ± 0.042 | 1.79 ± 0.12
UAACUC | -0.459 ± 0.11 | 1.78 ± 0.016 | -0.294 ± 0.11 | 1.88 ± 0.085
UACUAU | -0.131 ± 0.0047 | 1.67 ± 0.051 | 0.0664 ± 0.13 | 1.83 ± 0.15
GACAGA | -0.179 ± 0.21 | 1.52 ± 0.065 | 0.0814 ± 0.049 | 1.7 ± 0.068
AAAUUG | -0.199 ± 0.011 | 1.56 ± 0.096 | -0.00914 ± 0.051 | 1.72 ± 0.097
GAAAUU | -0.0957 ± 0.14 | 1.5921 ± 0.00088 | 0.215 ± 0.096 | 1.78 ± 0.11
GAAAUG | -0.4346 ± 0.0037 | 1.55 ± 0.067 | -0.122 ± 0.1 | 1.71 ± 0.11
GAAAUA | 0.098 ± 0.25 | 1.47 ± 0.079 | 0.291 ± 0.031 | 1.65 ± 0.12
GAAUUG | -0.422 ± 0.012 | 1.57 ± 0.096 | -0.0224 ± 0.071 | 1.74 ± 0.11
GACACU | -0.276 ± 0.038 | 1.705 ± 0.016 | -0.141 ± 0.073 | 1.83 ± 0.12
GAAGGA | -0.325 ± 0.067 | 1.44 ± 0.093 | 0.0781 ± 0.006 | 1.59 ± 0.067
CAAUCA | -0.5458 ± 0.0024 | 1.4 ± 0.11 | -0.364 ± 0.017 | 1.61 ± 0.085
CAAUCU | -1.02 ± 0.16 | 1.54 ± 0.069 | -0.88 ± 0.038 | 1.71 ± 0.13
CAAUCC | -0.487 ± 0.028 | 1.75 ± 0.049 | -0.368 ± 0.016 | 1.87 ± 0.11
AAAGGU | -0.701 ± 0.017 | 1.54 ± 0.054 | -0.44 ± 0.065 | 1.71 ± 0.1
AAAGGA | -0.691 ± 0.009 | 1.31 ± 0.13 | -0.5317 ± 0.0025 | 1.47 ± 0.11
AAAGGG | -0.506 ± 0.051 | 1.37 ± 0.078 | -0.2804 ± 0.00041 | 1.59 ± 0.077
UACAAC | 0.031 ± 0.034 | 1.68 ± 0.03 | 0.268 ± 0.013 | 1.8 ± 0.11
CACUGU | -0.215 ± 0.023 | 1.709 ± 0.017 | 0.0975 ± 0.08 | 1.83 ± 0.11
CACCCU | -0.383 ± 0.019 | 1.65 ± 0.082 | -0.109 ± 0.033 | 1.75 ± 0.038
CAACAA | -0.326 ± 0.062 | 1.37 ± 0.11 | 0.0147 ± 0.011 | 1.53 ± 0.1
CAACAU | -0.377 ± 0.0095 | 1.43 ± 0.089 | -0.0626 ± 0.039 | 1.64 ± 0.13
CAACCU | -0.206 ± 0.19 | 1.56 ± 0.069 | -0.0641 ± 0.21 | 1.74 ± 0.096
AACUAA | -0.473 ± 0.029 | 1.51 ± 0.035 | -0.168 ± 0.1 | 1.74 ± 0.11

Variant | FACS-Seq fitted mean (log10) (cyclic di-GMP [1]) | normalized RNA/DNA level without ligand (log10) (cyclic di-GMP [2]) | FACS-Seq fitted mean (log10) (cyclic di-GMP [3]) | normalized RNA/DNA level with ligand (log10) (cyclic di-GMP [4])
UAAUGC | -0.174 ± 0.058 | 1.69 ± 0.032 | -0.398 ± 0.12 | 1.84 ± 0.073
UAAUGA | -0.416 ± 0.019 | 1.597 ± 0.0061 | -0.112 ± 0.13 | 1.77 ± 0.086
AACGCU | -0.0259 ± 0.099 | 1.704 ± 0.013 | 0.296 ± 0.0034 | 1.86 ± 0.076
AACGCC | -0.235 ± 0.048 | 1.75 ± 0.022 | 0.192 ± 0.046 | 1.9 ± 0.15
CACGGA | -0.398 ± 0.042 | 1.48 ± 0.092 | 0.0123 ± 0.14 | 1.72 ± 0.06
AACCUU | -0.0813 ± 0.093 | 1.66 ± 0.039 | 0.232 ± 0.016 | 1.82 ± 0.11
AAAUGA | -0.5596 ± 0.00088 | 1.43 ± 0.061 | -0.289 ± 0.037 | 1.62 ± 0.089
AAAUGC | -0.0259 ± 0.11 | 1.642 ± 0.01 | 0.294 ± 0.022 | 1.79 ± 0.09
AAAUGU | -0.132 ± 0.022 | 1.54 ± 0.03 | 0.136 ± 0.093 | 1.78 ± 0.09
UAAUUU | -0.1701 ± 0.00076 | 1.688 ± 0.0068 | -0.0196 ± 0.026 | 1.87 ± 0.11
UACGUG | -0.864 ± 0.019 | 1.69 ± 0.031 | -0.635 ± 0.083 | 1.85 ± 0.12
AAACUU | -0.199 ± 0.0094 | 1.646 ± 0.0047 | 0.118 ± 0.0021 | 1.82 ± 0.091
AAACUA | -0.338 ± 0.065 | 1.49 ± 0.031 | -0.0568 ± 0.0064 | 1.65 ± 0.11
AAACUC | -0.854 ± 0.053 | 1.706 ± 0.0065 | -0.744 ± 0.039 | 1.83 ± 0.071
AAACUG | -0.426 ± 0.0086 | 1.53 ± 0.039 | -0.194 ± 0.0073 | 1.75 ± 0.092
UACUUU | -0.1 ± 0.037 | 1.68 ± 0.019 | 0.192 ± 0.048 | 1.84 ± 0.13
AACUCC | 0.000732 ± 0.015 | 1.815 ± 0.0033 | 0.225 ± 0.013 | 1.91 ± 0.097
CACGUG | -0.341 ± 0.18 | 1.67 ± 0.019 | -0.148 ± 0.21 | 1.84 ± 0.085
GAACGA | -0.276 ± 0.045 | 1.46 ± 0.1 | -0.0281 ± 0.066 | 1.64 ± 0.072
GAACGU | -0.419 ± 0.027 | 1.54 ± 0.095 | -0.133 ± 0.0044 | 1.69 ± 0.092
CACAUA | -0.521 ± 0.032 | 1.26 ± 0.07 | -0.272 ± 0.044 | 1.52 ± 0.093
CACAUU | -0.323 ± 0.046 | 1.58 ± 0.025 | -0.0216 ± 0.035 | 1.7 ± 0.1
CAAGAA | -0.432 ± 0.1 | 1.23 ± 0.12 | -0.059 ± 0.057 | 1.48 ± 0.13

— the supplement of paper PMC6757056
